PMC5913134, “The IL-33-PIN1-IRAK-M axis is critical for type 2 immunity in IL-33-induced allergic airway inflammation” (Nature Communications, 2018)

System: IRAK1
Test: In vitro phosphorylation by IRAK1 immunoprecipitated from IL-33 stimulated cells
Type: biochemical
Conditions: IRAK1 IPed from IL-33 stimulated cells, γP32 ATP, autoradiography
Text: Suppl em enta ry Figur e 2.
Supplementary Figure 2. IRAK-M DD structure modeling analysis and phosphorylation by IRAK1.
(a) Overlaid 1H-15N HSQC spectra of the 15N-labeled Pin1 WW domain showing changes in chemical environment resulting from titration with the phosphorylated IRAK-M peptide. Overlaid spectra of apo (red) and increasing amounts of ligand (rainbow of colors, with purple as highest ligand concentration) show progressive peak shifts. (b) Interaction between IRAK-M DD and IRAK1 DD from Figure 3f. Cyan: IRAK1 DDs, Yellow: IRAK-M DD. (c) The aromatic residues interaction between IRAK-M DD and IRAK4 DD from Figure 3f. Green: IRAK4 DDs, Yellow: IRAK-M DD. (d) IRAK-M or its mutants as described, were expressed in 293 cells or 293 IRAK1null cells expressing the ST2 receptor and treated with IL-33. The phosphorylation is shown by the slow migrating bands. (e) WT or Pin KO cells were treated with IL-33 and IRAK1 phosphorylation was monitored at different time after stimulation. (f) DC2.4 cells were either treated or not with IL-33. IRAK1 was IP’d and incubated with GST-IRAK-M aa1-120 in the presence of ΓP32ATP.
The beads were washed and GST-IRAK-M was eluted and run for autoradiography. […]

B1: GST-IRAK-M: purified GST-IRAK-M containing amino acids 1-120 (protein, UniProt Q8K4B2 1-120, looked up, fragment)
chain: MAGRCGARGALSPQLLLFDLPPALLGELCGILDSCDGPLGWRGLAERLSNSWLDVRHIEKYVNQGKSGTRELLWSWAQKNKTIGDLLEVLQDMGHQRAIHLIINYGVSWTPSVQTHHELP
modifications: GST tag
  phosphorylation by IRAK1: phosphorylated WT IRAK-M
